Data taken from US10005846 (LIFEARC, dated 2018).

T1: human transglutaminase type 2 (TG2) (human, UniProt P21980 1-687)
T1 sequence: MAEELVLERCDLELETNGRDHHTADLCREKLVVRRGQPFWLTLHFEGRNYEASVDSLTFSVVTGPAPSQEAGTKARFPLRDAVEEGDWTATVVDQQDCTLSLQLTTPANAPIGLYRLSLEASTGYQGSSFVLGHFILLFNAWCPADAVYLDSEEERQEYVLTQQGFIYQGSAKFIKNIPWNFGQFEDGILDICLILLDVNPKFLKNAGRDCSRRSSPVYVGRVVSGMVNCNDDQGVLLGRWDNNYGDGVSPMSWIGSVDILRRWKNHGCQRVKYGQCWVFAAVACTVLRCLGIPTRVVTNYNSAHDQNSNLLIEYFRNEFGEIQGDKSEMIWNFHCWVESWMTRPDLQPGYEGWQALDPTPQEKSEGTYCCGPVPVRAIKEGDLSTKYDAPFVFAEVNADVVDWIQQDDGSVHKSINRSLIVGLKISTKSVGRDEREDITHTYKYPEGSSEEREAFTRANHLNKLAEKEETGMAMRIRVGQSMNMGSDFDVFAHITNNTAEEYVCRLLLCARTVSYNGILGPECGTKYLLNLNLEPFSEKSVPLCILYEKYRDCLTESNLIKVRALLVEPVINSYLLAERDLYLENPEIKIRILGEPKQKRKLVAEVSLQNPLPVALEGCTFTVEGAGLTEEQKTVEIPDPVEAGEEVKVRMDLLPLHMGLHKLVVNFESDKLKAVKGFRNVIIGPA

T2: cynomolgus monkey TG2 (cynomolgus monkey, UniProt A0A2K5VXI8 1-687)
T2 construct: Bought recombinant protein; also called cynomogulus monkey TG2; cyano TG2
T2 sequence: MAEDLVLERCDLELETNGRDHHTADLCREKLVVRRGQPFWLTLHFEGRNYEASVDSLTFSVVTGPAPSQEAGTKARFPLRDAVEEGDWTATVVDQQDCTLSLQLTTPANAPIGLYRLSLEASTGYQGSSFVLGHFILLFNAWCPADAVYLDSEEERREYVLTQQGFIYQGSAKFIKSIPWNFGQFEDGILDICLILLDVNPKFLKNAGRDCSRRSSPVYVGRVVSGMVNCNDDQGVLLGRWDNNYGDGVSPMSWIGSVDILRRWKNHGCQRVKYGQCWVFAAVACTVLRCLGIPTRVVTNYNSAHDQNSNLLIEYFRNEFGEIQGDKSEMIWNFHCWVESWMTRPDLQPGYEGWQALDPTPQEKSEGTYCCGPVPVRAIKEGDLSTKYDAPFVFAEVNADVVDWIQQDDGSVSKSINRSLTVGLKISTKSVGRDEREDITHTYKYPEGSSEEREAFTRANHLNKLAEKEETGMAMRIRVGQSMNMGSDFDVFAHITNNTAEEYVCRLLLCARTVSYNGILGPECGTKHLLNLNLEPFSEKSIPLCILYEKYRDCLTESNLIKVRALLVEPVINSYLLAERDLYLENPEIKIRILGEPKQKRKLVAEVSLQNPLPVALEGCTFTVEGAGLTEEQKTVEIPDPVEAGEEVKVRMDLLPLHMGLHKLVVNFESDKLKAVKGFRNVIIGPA


Legend:
[1] = target: T1, human transglutaminase type 2 (TG2); assay: cell-based or functional assay
[2] = target: T1, human transglutaminase type 2 (TG2); assay: cell-based or functional assay; remark: listed apart in the source
[3] = target: T2, cynomolgus monkey TG2; assay: SPR (Biacore T200), antibody captured on anti-human IgG1 Fc chip, TG2 injected; -Ca2+
Method: Recombinant cynomolgus monkey TG2 was obtained from Trenzyme. Surface plasmon resonance (SPR) was measured on a Biacore T200 instrument (GE Healthcare). CM5 chips (GE Healthcare cat. no.: BR-1006-68) were coated with monoclonal mouse anti-human IgG1 (Fc) (MAH) antibody (GE Healthcare cat. no.: BR-1008-39) by amine-coupling as described in the manufacturers instructions. HBS-EP+ buffer (0.01 M HEPES, 0.15 M NaCl, 3 mM EDTA, 0.05% v/v Surfactant P20) and HBS-P+ buffer (0.01 M HEPES, 0.15 M NaCl, 0.05% Surfactant P20) were purchased from GE Healthcare as 10× stocks (cat. nos.: BR-1006-69 and BR-1006-71). Calcium Chloride solution was obtained from Sigma Aldrich (cat. no.:21115).
The method employed to determine the affinity of the anti-TG2 antibodies involved the capture of the chimeric or humanised antibodies on a MAH coated CM5 chip, followed by the injection of a series of TG2 samples in running buffer. The running buffer was 1×HBS-P+ containing 1 mM CaCl_2, or 1×HBS-EP+ for calcium-free experiments. Antibody capture was carried out for a contact time of 120 seconds at a flow rate of 10 μl/min resulting in the capture of approximately 40-80 RU. TG2 was injected over the immobilised antibody at concentrations ranging from 25 nM to 400 nM with a contact time up to 600 seconds at a flow rate of 30 μl/min. Dissociation of TG2 was typically measured for up to 5400 seconds (1.5 hours). Regeneration of the chip was then performed using 3 M MgCl_2, for a contact time of 60 seconds at a flow rate of […], followed by a 300 s stabilisation period before the next sample. For each of human and cynomolgus monkey TG2, at least 5 injections at a variety of concentrations were performed in at least two separate experiments.
Kinetic data were exported from the Biacore T200 Evaluation Software and analysed using GraphPad Prism, where the association phases and dissociation phases were analysed separately using a one phase association model and one-phase exponential decay model respectively. Association rates ($kon$) were calculated for each curve individually, and dissociation rates ($koff$) values from the long dissociation phase data collected. Where $koff$ values were calculated to be $<1\times10^-5$ s^-1, values were set at 1×10^-5 for analysis, as rates slower than this could not be estimated accurately.

| IC50, 3H-putrescine incorporation assay [2] | Kd [3] | koff [3] | kon [3] | Binder | also measured |
| --- | --- | --- | --- | --- | --- |
| 1.1e-05 mg/ml of IgG (to inhibit 1 ng of TG2) |  |  |  | AB1 murine monoclonal antibody (antibody, V domains shown, Mouse hybridoma IgG; heavy chain amplified with constant region primer MHCG1, kappa light chain; also called mAB003) VH: EVQLVESGGGLVKPGGSLKLSCAASGFTLSSSAMSWVRQTPDRRLEWVATISVGGGKTYYPDSVKGRFTISRDNAKNTLYLQMNSLRSEDTAMYYCAKLISLYWGQGTTLTVSS VL: DIKMTQSPSSMYASLGERVTITCKASQDINSYLTWFQQKPGKSPKTLIYRTNRLFDGVPSRFSGSGSGQDFFLTISSLEYEDMGIYYCLQYDDFPYTFGGGTKLEIK | half-maximal concentration of enzymatic inhibition, headed EC50 nM on the sheet, IC50 in the legend [panel A] [1]: 9.5 nM |
| 1.1e-05 mg/ml IgG per ng of recombinant TG2 |  |  |  | DC1 murine monoclonal antibody (antibody, V domains shown, Mouse hybridoma IgG; heavy chain amplified with primer MHCG1, kappa light chain; also called mDC001) VH: EVQLVESGGGLVKPGGSLKLSCAASGFTLSTHAMSWVRQTPEKRLEWVATISSGGRSTYYPDSVKGRFTISRDNVKNTLYLQLSSLRSEDTAVYFCARLISTYWGQGTTLTVSS VL: DITMTQSPSSIYASLGERVTITCKASQDINSYLTWFQQKPGKSPKILIYLVNRLVDGVPSRFSGSGSGQDYALTISSLEYEDMGIYYCLQYDDFPYTFGGGTKLEIK |  |
|  |  |  |  | BB7 murine monoclonal antibody (antibody, V domains shown, Mouse hybridoma IgG; heavy chain amplified with primer MHCG1, kappa light chain; also called mBB001) VH: AVQLVESGGGLVKPGGSLKLSCAASGIIFSSSAMSWVRQTPEKRLEWVATISSGGRSTYYPDSVKGRFTVSRDSAKNTLYLQMDSLRSEDTAIYYCAKLISPYWGQGTTLTVSS VL: AIKMTQSPSSMYASLGERVIITCKASQDINSYLTWFQQKPGKSPKTLIYLTNRLMDGVPSRFSGSGSGQEFLLTISGLEHEDMGIYYCLQYVDFPYTFGGGTKLEIK | half-maximal concentration of enzymatic inhibition, headed EC50 nM on the sheet, IC50 in the legend [panel B] [1]: 0.752 nM |
|  | < 50 pM | < 1e-05 s⁻¹ | 190000 M⁻¹ s⁻¹ | cBB001 chimeric antibody (murine BB7 variable regions) (antibody, human IgG1, V domains shown, also called chimeric BB7) VH: AVQLVESGGGLVKPGGSLKLSCAASGIIFSSSAMSWVRQTPEKRLEWVATISSGGRSTYYPDSVKGRFTVSRDSAKNTLYLQMDSLRSEDTAIYYCAKLISPYWGQGTTLTVSS VL: AIKMTQSPSSMYASLGERVIITCKASQDINSYLTWFQQKPGKSPKTLIYLTNRLMDGVPSRFSGSGSGQEFLLTISGLEHEDMGIYYCLQYVDFPYTFGGGTKLEIK |  |
|  | 2400 pM | 6.3e-05 s⁻¹ | 26000 M⁻¹ s⁻¹ | cDH001 chimeric antibody (murine DH2 variable regions) (antibody, human IgG1, V domains shown) VH: not shown VL: QIVLTQSPAIMSASPGEKVTMTCSASSSVSYMYWYQQKPGSSPRLLIYDTSNLASGVPVRFSGSGSGTSYSLTISRMEAEDAATFYCQQWSSSPLTFGAGTKLELK |  |
|  | 890 pM | 4.1e-05 s⁻¹ | 46000 M⁻¹ s⁻¹ | cDD9001 chimeric antibody (murine DD9 variable regions) (antibody, human IgG1, V domains shown) VH: not shown VL: QIVLTQSPAIMSASPGEKVTMTCSASSSVDYMYWYQQKPGSSPRLLIYDTSNLASGVPVRFSGSGSGTSYSLTISRMGAEDAATYYCQQWNSSPLTFGAGTKLELK |  |
| 0.000123 mg/ml of IgG (to inhibit 1 ng of TG2) |  |  |  | JE12 murine monoclonal antibody (antibody, V domains shown, Mouse hybridoma IgG; heavy chain amplified with primer MHCG1, kappa light chain) VH: EVQLQQSGPELVKPGASVKMSCKASGYRFTSYVMHWVKQKSGQGLEWIGYINPYNDGAKYNEKFKGKATLTSDKSSSTAYMELSSLTSEDSAVYYCARLSSDYWGQGTTLTVSS VL: DVLMTQNPLSLPVSLGDQASISCRSSQSIEHINGNTYLEWYLQKPGQSPKFLIYKVSNRFSGVPDRFSGSGSGTDFTLRISRVEAEDLGIYYCFQGSHVPFTFGGGTKLEIK |  |
